The source of these data is patent publication EP4647443A1 (Max-Planck-Gesellschaft zur Förderung der Wissenschaften …, dated 2025).

To fix the notation:
T1: S. aureus gamma-hemolysin component A (HlgA) (Staphylococcus aureus, UniProt P0A071 30-309)
T1 sequence: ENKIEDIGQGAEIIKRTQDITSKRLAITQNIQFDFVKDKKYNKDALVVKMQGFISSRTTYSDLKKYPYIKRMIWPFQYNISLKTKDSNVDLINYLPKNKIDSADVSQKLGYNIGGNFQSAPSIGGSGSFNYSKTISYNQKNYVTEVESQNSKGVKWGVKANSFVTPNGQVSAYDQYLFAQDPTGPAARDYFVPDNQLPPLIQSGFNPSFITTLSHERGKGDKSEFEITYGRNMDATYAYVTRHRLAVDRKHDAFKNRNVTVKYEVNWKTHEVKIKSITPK

T2: S. aureus gamma-hemolysin component C (HlgC) (Staphylococcus aureus, UniProt Q07227 30-315)
T2 sequence: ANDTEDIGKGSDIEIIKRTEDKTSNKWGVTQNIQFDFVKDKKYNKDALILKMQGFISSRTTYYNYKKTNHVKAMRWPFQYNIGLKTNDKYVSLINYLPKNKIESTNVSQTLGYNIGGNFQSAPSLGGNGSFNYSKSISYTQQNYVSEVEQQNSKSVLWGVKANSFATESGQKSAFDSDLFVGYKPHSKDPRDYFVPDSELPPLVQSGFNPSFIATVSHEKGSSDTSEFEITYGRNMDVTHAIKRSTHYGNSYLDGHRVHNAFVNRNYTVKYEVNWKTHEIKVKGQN

T3: S. aureus gamma-hemolysin component B (HlgB) (Staphylococcus aureus, UniProt P0A075 27-325)
T3 sequence: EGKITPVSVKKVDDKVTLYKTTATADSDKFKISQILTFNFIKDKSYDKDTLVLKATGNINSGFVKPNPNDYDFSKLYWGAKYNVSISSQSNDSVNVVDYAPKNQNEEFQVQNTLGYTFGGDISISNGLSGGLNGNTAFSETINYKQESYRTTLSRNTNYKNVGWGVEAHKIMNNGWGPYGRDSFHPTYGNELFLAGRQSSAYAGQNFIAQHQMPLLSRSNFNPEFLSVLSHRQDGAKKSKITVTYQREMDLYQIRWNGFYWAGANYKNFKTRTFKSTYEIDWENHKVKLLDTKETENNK

B1: Bm31G04 (VHH)
VHH: QVQLVESGGGLVQPGGSLRLSCAASGITFTFYDMGWYRQAPGKQRELVATISISSSTTYADSVKGRFTISRDNAKNTVYLQMNSLKPEDTAVYYCNAQHVDSDYLAGYDYFGQGTQVTVSS
B2: Bm31G03 (VHH)
VHH: B1 VHH with P14A, T28I, T30S, L47V, S55G, S56R, N73D, Y94I
B3: Bm31D04 (VHH)
VHH: B1 VHH with T28I, T30D, T50G, S55G, V78I, Q98H, A106R
B4: Bm31F09 (VHH)
VHH: QVQLVESGGALVQPGGSLRLSCAASGFTFDDYVMSWVRQAPGTGLEWVSSIHTASSDTYYADSVKDRFTISTDNAKNTLYLQMNSLKPEDTAVYYCAADKAPLTIATMTRDEYDYWGQGTQVTVSS
B5: Bm31G12 (VHH)
VHH: QVQLVESGGGLVQPGGSLRLSCAAAGFTVDDYVMSWVRQVPGKGREWVSSIHSYSSDTYYADSVKGRFTISTDNAKNTLYLQMNSLKPEDTAVYYCAADKDPLTIATMTRYEYDYWGQGTQVTVSS
B6: Bm31B04 (VHH)
VHH: QVQLVESGGGLVQPGGSLRLSCAASGSSFSIYGMSWYRQAPGNQRELVALINVGDWTTYADSVKGRFTISRDSAKNTVYLQMNSLKPEDTAVYYCKADLSVSGSSFIRTYWGQGTQVTVSS
B7: Bm31A04 (VHH)
VHH: QVQLVQSGGGLVQPGGSLRLSCAASESISNIYVMGWFRQAPGKQRELVAAITSSNNTNYADSVKGRFTISRDNAKNTVYLQMNSLKPEDTAVYYCNADWGLGGYSDYGEYDYWGQGTQVTVSS
B8: Bm31A08 (VHH)
VHH: QVQLVESGGGLAQPGGSLTLSCAASGVVWSKYVMSWVRQVPEKGFEWVSGIKSDGSDTYYADSVKGRFTVSGDLAKKTVYLQLNSLKPEDTALYYCVLEYGTSWPPRVEEYDYWGQGTQVTVSS
B9: Bm31A09 (VHH)
VHH: QVQLVQSGGGLVQAGGSLRLSCAASGSTGSIYVMGWFRQAPGKQRELVASITRGEGSANYADSVKGRFTISRDNAKNTLYLQMNSLKPEDTAVYYCHADTGLGDYSDYAPHGYKYDYWGQGTQVTVSS
B10: Bm31D02 (VHH)
VHH: B9 VHH with Q6E
B11: Bm32A08 (VHH)
VHH: QVQLVESGGGLVQAGGSLRVSCAASGDWFIINSMAWFRQAPGKQREQVATISHGGIPRYADSVKGRFTISRDNSKGAVYLQMNNLKSDDTAMYVCAAGGLDYGFPDPTPEEFDYWGRGTQVTVSS
B12: Bm32F03 (VHH)
VHH: B11 VHH with N73D, G76D
B13: Bm32B07 (VHH)
VHH: QVQLVESGGGLVQTGGSLRLSCATSGRISSIYAMPWFRQAPGKEREFVAAISWHTDLAYYADSVKGRFTISKDNAKNTVYLQMNSLKPEDTAVYYCNIPSKEEYDRNYYYPTGGSWGQGTQVTVSS
B14: Bm32D01 (VHH)
VHH: B13 VHH with A58T, G66D, N77A, S85N, K87Q, I98V, E103Q, N107T, Y108S
B15: Bm32A03 (VHH)
VHH: B13 VHH with G10A, A23V, R27S, D56N, N84D, V93T, I98V, N107T, Y108S
B16: Bm29H04 (VHH)
VHH: QVQLVESGGGLVQPGGSLRLSCTASGVSLDDFAIGWFRQAPGKEREGVSCSSSRDRSEYYRDSVKGRFTISRDSQKNTVDLQMNSLTIEDTAVYYCAADPQPYPCSVGSLDRYNSWGQGTLVTVSS
B17: Bm29E06 (VHH)
VHH: QVQLVESGGGLVQPGGSLRLSCTASGVSLYDFAVGWFRQAPGKEREGVSCSSSRDRSEYYRDSVKGRFDIVRDNLKNIIYLQMDNLTIEDTAVYFCAADSQPYPCSLGSLERYDSWGQGTQVTVSS
B18: Bm29F05 (VHH)
VHH: B17 VHH with F37W, S51T, D69T, I78T, N85S, T120I
B19: Bm29B04 (VHH)
VHH: QVQLVESGGGLVQAGGSLRLSCAASGFTFDDYVIGWFRQAPGKEREAVACISNGDGVANVPNSMKGRFTISSDSAKNTVHLRADSLKADDTGVYYCAAVKERLCVHEGMEYWGKGTQVTVSS
B20: Bm29B05 (VHH)
VHH: QVQLVESGGGLVQAGGSLRLSCAASGFTFDDYVIGWFRQAPGKEREAVACISNGDGVTNYPNSMRGRFTISSDSAKNTVYLQTDSLKPDDTGVYYCATAKERLCVQGGMEYWGKGTLVTVSS
B21: Bm29C02 (VHH)
VHH: QVQLVESGGGLVQPGGSLRLSCTASGFTLDDWAIGWFRQAPGKEREGVSCTSSRERSSYYRDSVKGRFTISRDSTSNTVYLQMNELTLEDTAVYYCAADPQPYPCSLGQLGRYTTWGQGTQVTVSS
notes: also called anti-HlgB VHH Bm29C02
B22: Bm29D07 (VHH)
VHH: QVQLVESGGGLVQPGGSLRLSCTASSIIVSYYAIGWFRQAPGKGREGVSRITVPAGNLYYADSVKGRFSITRDDVKNTVYLQMNSFQVEDTATYYCAVSYGDSWVDPSYVDHWGQGIQVTVSS

Positions count from the first letter of the chain named. Some results are limits rather than exact numbers.

In the first assay the target is T1, S. aureus gamma-hemolysin component A …. Description: BLI, biotinylated VHH on streptavidin sensor, HlgA in solution.
Regarding B1, the Kd is 0.025 nM.
For B2, the Kd was determined as 0.015 nM.
In the case of B3, the Kd came to 0.05 nM.
Consider B4, for which binding was characterised by a dissociation constant (Kd) of 0.09 nM.
Molecule B5 came in with a Kd of 0.025 nM.
The molecule B6 registered a Kd of at most 0.01 nM.
On the same count and under the same terms, then B7, with 0.06 nM.
B8 displayed a Kd of at most 0.01 nM.
Same read-out and setting: then B9, with 0.05 nM; and B10, with 0.07 nM.

In another assay the target is T2, S. aureus gamma-hemolysin component C …. The assay is described as follows: BLI, biotinylated VHH on streptavidin sensor, HlgC in solution.
Take B11: the Kd was 0.045 nM.
The same measure, in the same setting: under B12 stands 0.85 nM; under B13, 0.045 nM.
On the same count and under the same terms, under B14 stands 0.03 nM.
Turning to B15, binding was put at a Kd of 0.025 nM.

The target of the next assay is T3, S. aureus gamma-hemolysin component B …. The assay is described as follows: BLI, biotinylated VHH on streptavidin sensor, HlgB in solution.
With B16, the affinity, expressed as Kd, was 0.06 nM.
B17 came in with a dissociation constant Kd of 0.03 nM.
Same read-out and setting: under B18 stands 0.02 nM; under B19, at most 0.01 nM; under B20, at most 0.01 nM.
Molecule B21 displayed a Kd of 0.01 nM.
As to B22, the Kd was at most 0.01 nM.
